Measurements from paper PMC5727384, “A pH-gated conformational switch regulates the phosphatase activity of bifunctional HisKA-family histidine kinases” (Nature Communications, 2017).
Residue numbers refer to the chain shown, from its start. Names may count otherwise.

B1: DHp domain of HK853 (HK853^DHp), wild type, residues 250–315 (domain or fragment, Thermotoga maritima, UniProt Q9WZV7 250-315, looked up)
chain: MKTEFIANISHELRTPLTAIKAYAETIYNSLGELDLSTLKEFLEVIIDQSNHLENLLNELLDFSRL
notes: Histidine kinase HK853, Thermotoga maritima, dimerization and histidine-containing phosphotransfer (DHp) domain, residues 250–315; also called wild-type HK853^DHp; not shown: His6, N-terminal, cleaved; MBP, N-terminal, cleaved
B2: T264A mutant of the DHp domain of HK853 (T264A HK853^DHp), residues 250–315 (domain or fragment, Thermotoga maritima, UniProt Q9WZV7 250-315, looked up)
chain: B1 chain with T15A
notes: Histidine kinase HK853, Thermotoga maritima, DHp domain, residues 250–315, with T264A; also called T264A HK853 mutant; not shown: His6, N-terminal, cleaved; MBP, N-terminal, cleaved
B3: H260A mutant of the DHp domain of HK853 (H260A HK853^DHp), residues 250–315 (domain or fragment, Thermotoga maritima, UniProt Q9WZV7 250-315, looked up)
chain: B1 chain with H11A
notes: Histidine kinase HK853, Thermotoga maritima, DHp domain, residues 250–315, with H260A; not shown: His6, N-terminal, cleaved; MBP, N-terminal, cleaved
B4: Cytoplasmic portion of HK853 (HK853^cp), wild type, residues 232–489 (domain or fragment, Thermotoga maritima, UniProt Q9WZV7 232-489, looked up)
chain: VENVTESKELERLKRIDRMKTEFIANISHELRTPLTAIKAYAETIYNSLGELDLSTLKEFLEVIIDQSNHLENLLNELLDFSRLERKSLQINREKVDLCDLVESAVNAIKEFASSHNVNVLFESNVPCPVEAYIDPTRIRQVLLNLLNNGVKYSKKDAPDKYVKVILDEKDGGVLIIVEDNGIGIPDHAKDRIFEQFYRVDSSLTYEVPGTGLGLAITKEIVELHGGRIWVESEVGKGSRFFVWIPKDRAGEDNRQDN
notes: Histidine kinase HK853, Thermotoga maritima, cytoplasmic portion (DHp and CA domains), residues 232–489; Crystallised with AMPPNP, which was captured as ADP; also called wild-type HK853^cp; source: E. coli BL21(DE3) Gold, purified (ammonium sulfate precipitation, anion-exchange, size-exclusion)
B5: T264A mutant of the cytoplasmic portion of HK853 (T264A HK853^cp) (domain or fragment, Thermotoga maritima, UniProt Q9WZV7 232-489, looked up)
chain: B4 chain with T33A
notes: Histidine kinase HK853, Thermotoga maritima, cytoplasmic portion (residues 232–489 as stated for HK853^cp), with T264A; also called HK853^cp T264A mutant
B6: BeF3−-RR468 (BeF3−-conjugated form of the response regulator RR468 from Thermotoga maritima) (natural protein)
chain: MSKKVLLVDDSAVLRKIVSFNLKKEGYEVIEAENGQIALEKLSEFTPDLIVLDIMMPVMDGFTVLKKLQEKEEWKRIPVIVLTAKGGEEDESLALSLGARKVMRKPFSPSQFIEEVKHLLNE
modifications: BeF3− on D53 (beryllium atom forming a covalent bond with the phosphate-accepting residue D53; phosphoryl analog)
notes: Response regulator RR468, cognate response regulator of HK853, Thermotoga maritima; Generated by adding 5 mM BeCl2 and 50 mM NaF to RR468 (NMR) or 5 mM BeCl2 and 30 mM NaF (crystallisation); Mg2+ in the active site; source: E. coli BL21(DE3) Gold, purified (incubation at 60 °C, anion-exchange, size-exclusion); BeF3− added as BeCl2 and NaF

Assays:
[1] = biological target: T1, HK853^cp-BeF3 ^−-RR468 complex (nucleotide site of HK853^cp) (Thermotoga maritima, UniProt Q9WZV7); assay: X-ray crystal structure, […] A; format: binding; conditions: pH 5.0; Mg2+; crystallised with 4 mM AMPPNP, hydrolysed to ADP; ATP site of HK853 CA domain
T1 construct: gene TM_0853; HK853 cytoplasmic portion (DHp and CA domains, residues 232-489), with RR468; heterotetramer of two HK853cp and two RR468; expressed in E. coli; with Response regulator
T1 sequence (Q9WZV7 232-489): B4 chain
T1 sequence (Q9WYT9 1-122 partner): B6 chain

[2] = biological target: T2, HK853^cp-BeF3 ^−-RR468 complex (active site of RR468) (Thermotoga maritima, UniProt Q9WYT9); conditions: pH 5.0; Mg2+; covalent to D53 of RR468
T2 construct: gene TM_0468

[3] = biological target: T3, HK853^DHp-BeF3 ^−-RR468 complex (Thermotoga maritima, UniProt Q9WYT9); conditions: pH 7.0; Mg2+; 298 K; covalent to D53 of RR468; 10-fold excess of HK853 DHp
T3 construct: gene TM_0468

RR468 = biological target: T4, RR468 (Thermotoga maritima, UniProt Q9WYT9); conditions: pH 7.0; Mg2+; 298 K; covalent Be bond to D53; formed from 5 mM BeCl2 and 50 mM NaF
T4 construct: gene TM_0468

[4] = biological target: B6; assay: NMR titration; 19F NMR of BeF3−-RR468, HK853^DHp or mutants added at a concentration 10-fold higher than BeF3−-RR468; pH 7.0; 20 mM HEPES, 50 mM KCl, 10 mM MgCl2; 298 K; conditions: both partners purified
[5] = biological target: the molecule itself; assay: crystal structure; HK853^cp (wild type or T264A) with RR468, BeF3− and AMPPNP (captured as ADP), crystallised at pH 5.0 (citric acid, ammonium sulfate)
[6] = biological target: B4; assay: as above; conditions: both partners purified
[7] = biological target: B5; assay: as above; conditions: both partners purified

Nc1ncnc2c1ncn2[C@@H]1O[C@H](COP(=O)(O)OP(=O)(O)O)[C@@H](O)[C@H]1O [ADP]
X-ray crystal structure, 2.68 A [1]: The AMPPNP is captured in the hydrolyzed form of ADP

[F][Be-]([F])[F] [BeF3 ^−]
X-ray crystal structure, 2.68 A [2]: reveals a heterotetrameric complex consisting of two HK853^cp and two BeF3 ^−-RR468 | 19F NMR [3]: indicating the formation of the HK853^DHp-BeF3 ^−-RR468 complex | 19F NMR (RR468): we were able to detect three broad fluorine signals from the protein-bound BeF3 ^−

B1
binding result [4]: binds

B2
binding result [4]: binds

B3
binding result [4]: binds

B4
binding result [5]: binds

B5
binding result [5]: binds

B6
binding result [6]: binds | binding result [7]: binds
